B1: HDV Ribozyme (parent)
chain: GGCCGGCAUGGUCCCAGCCUCCUCGCUGGCGCCGGCUGGGCAACAUUCCGAGGGGACCGUCCCCUCGGUAAUGGCGAAUGGGACCCA

Variants of: B1
Assay: self-cleavage, relative activity (ratio to wild type); higher = more cleavage; co-transcriptional

Q: Which self-cleavage does the source give for GGCCGGCAUGGGCCCAGCCUCCUCGCUGGCGGCGGCUGGGCAACAUUCCGAGGGGACCGUCCCCUCGGUAAUGGCGAAUGGGACCCA [U12G C32G] here?
A: 0.0755

Q: Which self-cleavage does the source give for GGCCGGCAUGGGUCCAGCCUCCUCGCUGGCGCCGGCUGGGCAACAUUCCGAGGGGACCGUCCCCUCGGUAAUGGCGAAUGGGACCCA [U12G C13U] here?
A: 0.931

Q: Which self-cleavage does the source give for GGCCGGCAUGGGGCCAGCCUCCUCGCUGGCGCCGGCUGGGCAACAUUCCGAGGGGACCGUCCCCUCGGUAAUGGCGAAUGGGACCCA [U12G C13G] here?
A: 0.639

Q: Which self-cleavage does the source give for GGCCGGCAUGGGCCCAGCCUCUUCGCUGGCGCCGGCUGGGCAACAUUCCGAGGGGACCGUCCCCUCGGUAAUGGCGAAUGGGACCCA [U12G C22U] here?
A: 0.256

Q: Which self-cleavage does the source give for GGCCGGCAUGGGCCCAGCCUCGUCGCUGGCGCCGGCUGGGCAACAUUCCGAGGGGACCGUCCCCUCGGUAAUGGCGAAUGGGACCCA [U12G C22G] here?
A: 0

Q: Which self-cleavage does the source give for GGCCGGCAUGGGCCCAGCCUCAUCGCUGGCGCCGGCUGGGCAACAUUCCGAGGGGACCGUCCCCUCGGUAAUGGCGAAUGGGACCCA [U12G C22A] here?
A: 0.277

Q: For GGCCGGCAUGGCCCCAGCCUCCUCGCUGGCGCCGGCUGGGCAACAUUCCGAGGGGACCGUCCCCUCGGUAAGGGCGAAUGGGACCCA [U12C U72G], which self-cleavage is on record?
A: 0.128

Q: With GGCCGGCAUGGCCCCAGCCUCCUCGCUGGCGCCGGCUGGGCAACAUUCCGAGGGGACCGUCCCCUCGGUAAUGGCGAAUGUGACCCA [U12C G81U] as the variant, how does the self-cleavage read?
A: 0

Q: With GGCCGGCAUGGCCCCAGCCUCCUCGCUGGCGCCGGCUGGGCAACAUUCCGAGGGGACCGUCCCCUCGGUAAUGGCGAAUGAGACCCA [U12C G81A] as the variant, how does the self-cleavage read?
A: 0.095

Q: For GGCCGGCAUGGGCCCAGCCUCCUCGCUGGCGCCGGCUGGGCAACAUUCCGAGGGGACCGUCCCCUCGGUAAUGGCGAAUGGGCCCCA [U12G A83C], which self-cleavage is on record?
A: 1.17

Q: For GGCCGGCAUGGGCCCAGCCUCCUCGCUGGCGCCGGCUGGGCAACAUUCCGAGGGGACCGUCCCCUCGGUAAUGGCGACUGGGACCCA [U12G A78C], which self-cleavage is on record?
A: 0.0594

Q: With GGCCGGCAUGGGCCCAGCCUCCUCGCUGGCGCCGGCUGGGCAACAUUCCGAGGGGACCGUCCCCUCGGUAAUGGCGAGUGGGACCCA [U12G A78G] as the variant, how does the self-cleavage read?
A: 0.612

Q: Which self-cleavage does the source give for GGCCGGCAUGGGCCCAGCCUGCUCGCUGGCGCCGGCUGGGCAACAUUCCGAGGGGACCGUCCCCUCGGUAAUGGCGAAUGGGACCCA [U12G C21G] here?
A: 0.0665

Q: With GGCCGGCAUGGGCCCAGCCUACUCGCUGGCGCCGGCUGGGCAACAUUCCGAGGGGACCGUCCCCUCGGUAAUGGCGAAUGGGACCCA [U12G C21A] as the variant, how does the self-cleavage read?
A: 0

Q: Which self-cleavage does the source give for GGCCGGCAUGGGCCCAGCCUCCUCGCUGGAGCCGGCUGGGCAACAUUCCGAGGGGACCGUCCCCUCGGUAAUGGCGAAUGGGACCCA [U12G C30A] here?
A: 0.332

Q: Which self-cleavage does the source give for GGCCGGCAUGGGCCCAGCCUCCUCGCUGGUGCCGGCUGGGCAACAUUCCGAGGGGACCGUCCCCUCGGUAAUGGCGAAUGGGACCCA [U12G C30U] here?
A: 0.375

Q: With GGCCGGCAUGGGCCAAGCCUCCUCGCUGGCGCCGGCUGGGCAACAUUCCGAGGGGACCGUCCCCUCGGUAAUGGCGAAUGGGACCCA [U12G C15A] as the variant, how does the self-cleavage read?
A: 0.237

Q: For GGCCGGCAUGGGCCUAGCCUCCUCGCUGGCGCCGGCUGGGCAACAUUCCGAGGGGACCGUCCCCUCGGUAAUGGCGAAUGGGACCCA [U12G C15U], which self-cleavage is on record?
A: 0.453

Q: With GGCCGGCAUGGGCCCAGUCUCCUCGCUGGCGCCGGCUGGGCAACAUUCCGAGGGGACCGUCCCCUCGGUAAUGGCGAAUGGGACCCA [U12G C18U] as the variant, how does the self-cleavage read?
A: 0.361

Q: Which self-cleavage does the source give for GGCCGGCAUGGGCCCAGACUCCUCGCUGGCGCCGGCUGGGCAACAUUCCGAGGGGACCGUCCCCUCGGUAAUGGCGAAUGGGACCCA [U12G C18A] here?
A: 0.151

Q: For GGCCGGCAUGGGCCCAGGCUCCUCGCUGGCGCCGGCUGGGCAACAUUCCGAGGGGACCGUCCCCUCGGUAAUGGCGAAUGGGACCCA [U12G C18G], which self-cleavage is on record?
A: 0

Q: With GGCCGGCAUGGGCACAGCCUCCUCGCUGGCGCCGGCUGGGCAACAUUCCGAGGGGACCGUCCCCUCGGUAAUGGCGAAUGGGACCCA [U12G C14A] as the variant, how does the self-cleavage read?
A: 0.356

Q: Which self-cleavage does the source give for GGCCGGCAUGGGCGCAGCCUCCUCGCUGGCGCCGGCUGGGCAACAUUCCGAGGGGACCGUCCCCUCGGUAAUGGCGAAUGGGACCCA [U12G C14G] here?
A: 0

Q: With GGCCGGCAUGGCCCCAGCCUCCUCGCUGGCGCCGGCUGGGCAACAUACCGAGGGGACCGUCCCCUCGGUAAUGGCGAAUGGGACCCA [U12C U47A] as the variant, how does the self-cleavage read?
A: 0.289

Q: With GGCCGGCAUGGCCCCAGCCCCCUCGCUGGCGCCGGCUGGGCAACAUUCCGAGGGGACCGUCCCCUCGGUAAUGGCGAAUGGGACCCA [U12C U20C] as the variant, how does the self-cleavage read?
A: 0

Q: With GGCCGGCAUGGCCCCAGCCGCCUCGCUGGCGCCGGCUGGGCAACAUUCCGAGGGGACCGUCCCCUCGGUAAUGGCGAAUGGGACCCA [U12C U20G] as the variant, how does the self-cleavage read?
A: 0.0831

Q: For GGCCGGCAUGGGCCCAGCCUCCUCGCUGGCGCCGGUUGGGCAACAUUCCGAGGGGACCGUCCCCUCGGUAAUGGCGAAUGGGACCCA [U12G C36U], which self-cleavage is on record?
A: 0.415

Q: For GGCCGGCAUGGGCCCAGCCUCCUCGCUGGCGCCGGAUGGGCAACAUUCCGAGGGGACCGUCCCCUCGGUAAUGGCGAAUGGGACCCA [U12G C36A], which self-cleavage is on record?
A: 0.156

Q: With GGCCGGCAUGGGCCCAGCCUCCUAGCUGGCGCCGGCUGGGCAACAUUCCGAGGGGACCGUCCCCUCGGUAAUGGCGAAUGGGACCCA [U12G C24A] as the variant, how does the self-cleavage read?
A: 0.65

Q: With GGCCGGCAUGGGCCCAGCCUCCUUGCUGGCGCCGGCUGGGCAACAUUCCGAGGGGACCGUCCCCUCGGUAAUGGCGAAUGGGACCCA [U12G C24U] as the variant, how does the self-cleavage read?
A: 0.511

Q: Which self-cleavage does the source give for GGCCGGCAUGGCCCCAGCCUCCUCGCCGGCGCCGGCUGGGCAACAUUCCGAGGGGACCGUCCCCUCGGUAAUGGCGAAUGGGACCCA [U12C U27C] here?
A: 0.222

Q: Which self-cleavage does the source give for GGCCGGCAUGGCCCCAGCCUCCUCGCAGGCGCCGGCUGGGCAACAUUCCGAGGGGACCGUCCCCUCGGUAAUGGCGAAUGGGACCCA [U12C U27A] here?
A: 0.506

Source: the RNAGym collection of RNA variant scans (doi:10.7554/elife.80360)
